For test [1], the target named is T1, HLA-A1 (A*0101) (human).
T1 construct: Acid-stripped B-LCL
As to the kind of experiment: cell competition vs YLEPAC(FI)AKY, stripped CAA B-LCL, FACS.

For test [2], the target named is T2, HLA-A1 (A*0101) (human).
T2 construct: HLA class I on acid-stripped EBV-transformed B cells (B-LCL)
As to the kind of experiment: competition vs YLEPAC(FI)AKY on stripped B-LCL, FACS.

The target in test [3] is T3, HLA-A3 (A*0301) (human).
T3 construct: Acid-stripped B-LCL
As to the kind of experiment: cell competition vs KVFPC(FI)ALINK, stripped EKR B-LCL, FACS.

Test [4] addresses T4, HLA-B35 (B*3501) (human).
T4 construct: HLA class I on acid-stripped EBV-transformed B cells (B-LCL)
As to the kind of experiment: competition vs NPDIVC(FI)YQY on stripped B-LCL, FACS.

Test [5] concerns the target T5, HLA-B8 (B*0801) (human).
T5 construct: Acid-stripped B-LCL
In words: cell competition vs FLRGRAC(FI)GL, stripped Vavy B-LCL, FACS.

The target of test [6] is T6, HLA-B35 (B*3501) (human).
T6 construct: Acid-stripped B-LCL
As to the kind of experiment: cell competition vs NPDIVC(FI)YQY, stripped BVR B-LCL, FACS.

Test [7] addresses T7, HLA-B62 (B*1501) (human).
T7 construct: HLA class I on acid-stripped EBV-transformed B cells (B-LCL)
As to the kind of experiment: competition vs YLGEFSC(FI)TY on stripped B-LCL, FACS.

The target in test [8] is T8, HLA-A3 (A*0301) (human).
T8 construct: HLA class I on acid-stripped EBV-transformed B cells (B-LCL)
As to the kind of experiment: competition vs KVFPC(FI)ALINK on stripped B-LCL, FACS.

For test [9], the target named is T9, HLA-B62 (B*1501) (human).
T9 construct: Acid-stripped B-LCL
In words: cell competition vs YLGEFSC(FI)TY, stripped BSM B-LCL, FACS.

For test [10], the target named is T10, HLA-B61 (B*4002) (human).
T10 construct: Acid-stripped B-LCL
As to the kind of experiment: cell competition vs GEFGGC(FI)GSV, stripped Swei007 B-LCL, FACS.

Test [11] concerns the target T11, HLA-B60 (B*4001) (human).
T11 construct: Acid-stripped B-LCL
In words: cell competition vs KESTC(FI)HLVL, stripped DKB B-LCL, FACS.

The target in test [12] is T12, HLA-B61 (B*4002) (human).
T12 construct: HLA class I on acid-stripped EBV-transformed B cells (B-LCL)
As to the kind of experiment: competition vs GEFGGC(FI)GSV on stripped B-LCL, FACS.

Test [13] addresses T13, HLA-B8 (B*0801) (human).
T13 construct: HLA class I on acid-stripped EBV-transformed B cells (B-LCL)
As to the kind of experiment: competition vs FLRGRAC(FI)GL on stripped B-LCL, FACS.

Test [14] has as its target T14, HLA-B60 (B*4001) (human).
T14 construct: HLA class I on acid-stripped EBV-transformed B cells (B-LCL)
As to the kind of experiment: competition vs KESTC(FI)HLVL on stripped B-LCL, FACS.

The source of these data is patent publication US20160333065A1 (ACADEMISCH ZIEKENHUIS LEIDEN H O D N LUMC, published 2016).

Usually IC50 stands for the concentration that inhibits the measured activity by half.

B1: PRAME peptide LSHIHASSY (peptide)
peptide: LSHIHASSY
As to B1, in test [1], the IC50 turned out to be 1 µM. That is a single-digit micromolar value.

B2: PRAME 294-302 SLQCLQALY (peptide)
peptide: SLQCLQALY
B2 had a concentration for half-maximal inhibition (IC50) in test [2] of 2 µM.

B3: PRAME 267-275 LSHIHASSY (peptide)
peptide: LSHIHASSY
Turning to B3, in test [2], the IC50 is 1 µM. This IC50 lies about 2-fold lower than the previous one.

B4: PRAME peptide RLAYLHARLR (peptide)
peptide: RLAYLHARLR
notes: also called start 459
For B4, the IC50 in [3] was found to be 1 µM.

B5: PRAME 246-255 LPTLAKFSPY (peptide)
peptide: LPTLAKFSPY
As to B5, the IC50 in test [4] is 0.11 µM.

B6: PRAME peptide MINLRRLL (peptide)
peptide: MINLRRLL
notes: also called start 259
As to B6, the IC50 in test [5] was under 1 µM.

B7: PRAME peptide SMSVWTSPR (peptide)
peptide: SMSVWTSPR
notes: also called PRA16-24; start 16
In the case of B7, the IC50 in [3] is under 1 µM.

B8: PRAME 253-262 SPYLGQMINL (peptide)
peptide: SPYLGQMINL
B8 yielded an IC50 in test [4] of 1.98 µM. In other words, the single-digit micromolar range.

B9: PRAME peptide IPVEVLVDL (peptide)
peptide: IPVEVLVDL
notes: also called start 173
In test [6], B9 displayed an IC50 of 2.24 µM.

B10: PRAME 53-61 FPPLFMAAF (peptide)
peptide: FPPLFMAAF
In test [4], B10 returned an IC50 of under 1 µM.

B11: PRAME 89-97 GQHLHLETF (peptide)
peptide: GQHLHLETF
In [7], B11 had an IC50 of 2.39 µM.

B12: PRAME peptide LPRELFPPL (peptide)
peptide: LPRELFPPL
notes: also called start 48
Turning to B12, the IC50 in test [6] is under 1 µM.

B13: PRAME 80-88 CLPLGVLMK (peptide)
peptide: CLPLGVLMK
Molecule B13 yielded an IC50 in test [8] of under 1 µM.

B14: PRAME 16-24 SMSVWTSPR (peptide)
peptide: SMSVWTSPR
notes: also called PRA16-24; PRA(16-24)
Molecule B14 showed an IC50 in test [8] of under 1 µM.

B15: PRAME peptide VLYPVPLESY (peptide)
peptide: VLYPVPLESY
notes: also called start 439
As to B15, the IC50 in [9] was found to be 1.66 µM.

B16: PRAME 48-57 LPRELFPPLF (peptide)
peptide: LPRELFPPLF
In [4], B16 yielded an IC50 of 1.58 µM.

B17: PRAME peptide SLQCLQALY (peptide)
peptide: SLQCLQALY
notes: also called start 294
In test [1], B17 yielded an IC50 of 2 µM.

B18: PRAME peptide LPTLAKFSPY (peptide)
peptide: LPTLAKFSPY
notes: also called start 246
Consider B18, for which the IC50 in test [6] was under 1 µM.

B19: PRAME 427-436 LQHLIGLSNL (peptide)
peptide: LQHLIGLSNL
On to B19, for which the IC50 in [7] worked out at 2.41 µM.

B20: PRAME peptide LPRELFPPLF (peptide)
peptide: LPRELFPPLF
notes: also called start 48
In test [6], B20 gave a half-inhibitory concentration (IC50) of 1.58 µM.

B21: PRAME peptide FPPLFMAAF (peptide)
peptide: FPPLFMAAF
notes: also called start 53
Consider B21, for which, in [6], the IC50 was under 1 µM.

B22: PRAME 242-251 CTWKLPTLAK (peptide)
peptide: CTWKLPTLAK
The molecule B22 yielded an IC50 in [8] of 0.7 µM.

B23: PRAME peptide LQHLIGLSNL (peptide)
peptide: LQHLIGLSNL
notes: also called start 427
B23 registered an IC50 in [9] of 2.41 µM.

B24: PRAME 48-56 LPRELFPPL (peptide)
peptide: LPRELFPPL
The molecule B24 registered an IC50 in [4] of under 1 µM.

B25: PRAME peptide RELFPPLFMA (peptide)
peptide: RELFPPLFMA
notes: also called start 50
For the molecule B25, the IC50 in test [10] is under 1 µM.

B26: PRAME peptide DEALAIAAL (peptide)
peptide: DEALAIAAL
notes: also called start 37
For the molecule B26, the IC50 in [10] was under 1 µM; in test [11], 1.55 µM.

B27: PRAME 275-284 YISPEKEEQY (peptide)
peptide: YISPEKEEQY
In the case of B27, in test [2], the IC50 worked out at 3 µM.

B28: PRAME 292-302 FLSLQCLQALY (peptide)
peptide: FLSLQCLQALY
As for B28, the IC50 in test [2] was 1 µM.

B29: PRAME peptide CLPLGVLMK (peptide)
peptide: CLPLGVLMK
notes: also called start 80
With B29, the IC50 in [3] is under 1 µM.

B30: PRAME 186-194 GACDELFSY (peptide)
peptide: GACDELFSY
In [4], B30 displayed an IC50 of 2.6 µM.

B31: PRAME peptide ALYVDSLFF (peptide)
peptide: ALYVDSLFF
notes: also called start 300
For B31, in [9], the IC50 was under 1 µM.

B32: PRAME 94-101 LETFKAVL (peptide)
peptide: LETFKAVL
B32 gave an IC50 in [12] of under 1 µM.

B33: PRAME peptide GACDELFSY (peptide)
peptide: GACDELFSY
notes: also called start 186
Consider B33, for which the IC50 in [6] turned out to be 2.6 µM. In other words, the single-digit micromolar range.

B34: PRAME 405-414 CSQLTTLSFY (peptide)
peptide: CSQLTTLSFY
Molecule B34 showed an IC50 in test [2] of under 1 µM.

B35: PRAME 50-59 RELFPPLFMA (peptide)
peptide: RELFPPLFMA
Regarding B35, in test [12], the IC50 was under 1 µM.

B36: PRAME 429-438 HLIGLSNLTH (peptide)
peptide: HLIGLSNLTH
B36 displayed an IC50 in test [8] of 4 µM.

B37: PRAME 259-266 MINLRRLL (peptide)
peptide: MINLRRLL
B37 came in with an IC50 in test [13] of under 1 µM.

B38: PRAME peptide SPYLGQMINL (peptide)
peptide: SPYLGQMINL
Take B38: the IC50 in test [6] came to 1.98 µM. This lies in the single-digit micromolar range.

B39: PRAME peptide GTLHLERLAY (peptide)
peptide: GTLHLERLAY
notes: also called start 453
The molecule B39 had an IC50 in test [1] of 2 µM.

B40: PRAME 36-45 KDEALAIAAL (peptide)
peptide: KDEALAIAAL
On to B40, for which, in [14], the IC50 came to 2.91 µM.

B41: PRAME peptide LETFKAVL (peptide)
peptide: LETFKAVL
notes: also called start 94
In turn, B41 registered an IC50 in test [10] of under 1 µM.

B42: PRAME 300-308 ALYVDSLFF (peptide)
peptide: ALYVDSLFF
In test [7], B42 showed a 50% inhibitory concentration (IC50) of under 1 µM.

B43: PRAME peptide FLSLQCLQALY (peptide)
peptide: FLSLQCLQALY
notes: also called start 292
For the molecule B43, in [1], the IC50 turned out to be 1 µM.

B44: PRAME peptide CSQLTTLSFY (peptide)
peptide: CSQLTTLSFY
notes: also called start 405
On to B44, for which the IC50 in [1] is over 1 µM.

B45: PRAME peptide EPILCPCFM (peptide)
peptide: EPILCPCFM
notes: also called start 499
For the molecule B45, the IC50 in test [6] is under 1 µM.

B46: PRAME peptide QMINLRRLLL (peptide)
peptide: QMINLRRLLL
notes: also called start 258
For the molecule B46, the IC50 in test [5] turned out to be 1.67 µM.

B47: PRAME 316-324 LLRHVMNPL (peptide)
peptide: LLRHVMNPL
B47: the IC50 in [7] turned out to be 2.56 µM.

B48: PRAME peptide HLIGLSNLTH (peptide)
peptide: HLIGLSNLTH
notes: also called start 429
Regarding B48, in [3], the IC50 worked out at 4 µM.

B49: PRAME 260-267 INLRRLLL (peptide)
peptide: INLRRLLL
In turn, B49 yielded an IC50 in test [13] of under 1 µM.

B50: PRAME peptide INLRRLLL (peptide)
peptide: INLRRLLL
notes: also called start 260
With B50, the half-maximal inhibitory concentration (IC50) in test [5] is under 1 µM.

B51: PRAME peptide YEDIHGTLHL (peptide)
peptide: YEDIHGTLHL
notes: also called start 448
The molecule B51 returned an IC50 in test [11] of under 1 µM.

B52: PRAME peptide RELFPPLFM (peptide)
peptide: RELFPPLFM
notes: also called start 50
As for B52, the figures for the IC50 in [10] and in test [11] were under 1 µM and 1.48 µM, respectively.

B53: PRAME peptide KDEALAIAAL (peptide)
peptide: KDEALAIAAL
notes: also called start 36
B53: the IC50 in [11] stood at 2.91 µM. That is a single-digit micromolar value.

B54: PRAME peptide YLHARLREL (peptide)
peptide: YLHARLREL
notes: also called start 462
Consider B54, for which the IC50 in [5] is under 1 µM.

B55: PRAME peptide GQHLHLETF (peptide)
peptide: GQHLHLETF
notes: also called start 89
As to B55, in test [9], the IC50 amounted to 2.39 µM.

B56: PRAME peptide LLRHVMNPL (peptide)
peptide: LLRHVMNPL
notes: also called start 316
With B56, in test [9], the IC50 turned out to be 2.56 µM.

B57: PRAME peptide YISPEKEEQY (peptide)
peptide: YISPEKEEQY
notes: also called start 275
Turning to B57, the IC50 in [1] was 3 µM.

B58: PRAME peptide QPFIPVEVL (peptide)
peptide: QPFIPVEVL
notes: also called start 170
Molecule B58 registered an IC50 in [6] of 2.83 µM. In other words, the single-digit micromolar range.

B59: PRAME peptide CTWKLPTLAK (peptide)
peptide: CTWKLPTLAK
notes: also called start 242
In [3], B59 displayed an IC50 of under 1 µM.

B60: PRAME 258-267 QMINLRRLLL (peptide)
peptide: QMINLRRLLL
B60: the IC50 in test [13] amounted to 1.67 µM.
